Source: US20140178388A1 (INDUSTRIAL TECHNOLOGY RESEARCH INSTITUTE, published 2014)

How the values were obtained:
[1] = biological target: T1, mouse CD3 on mouse spleen T lymphocytes (mouse, UniProt P22646 22-189); assay: flow cytometry (MFI) on purified mouse spleen T lymphocytes, serial dilution
T1 construct: whole, on cells; also called mouse T lymphocytes

[2] = biological target: T2, human CD3 (TCR-CD3 complex) on human T cells (human, UniProt P07766 23-207); assay: flow cytometry (MFI) on purified human T lymphocytes, serial dilution
T2 construct: whole, on cells; The other subunits of the complex on the cells are not described; also called CD3ε chain; CD3(+) Jurkat T cells

T1 sequence (P22646 22-189): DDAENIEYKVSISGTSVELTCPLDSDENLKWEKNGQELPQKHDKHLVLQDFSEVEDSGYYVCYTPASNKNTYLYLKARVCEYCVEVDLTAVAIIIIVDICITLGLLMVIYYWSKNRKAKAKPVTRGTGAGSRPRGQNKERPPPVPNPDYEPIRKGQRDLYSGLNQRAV

Row | Molecule | Kd [1] | fold greater binding strength than 145-2C11 [1] | Kd [2] | fold greater binding strength than hOKT3IgG-AA [2]
1 | hamster anti-mouse CD3 antibody (145-2C11) | 15 nM |  |  | 
2 | h145FabCSA trimer (Fab, V domains shown, Trimeric Fab-collagen-like peptide fusion from the Superdex 200 peak 2 fraction; Expressed in NS0 cells; also called trimeric h145FabCSA) VH: EVQLQESGGGLVQPGKSLKLSCEASGFTFSGYGMHWVRQAPGRGLESVAYITSSSINIKYADAVKGRFTVSRDNAKNLLFLQMNILKSEDTAMYYCARFDWDKNYWGQGTMVTVSS VL: DIQMTQSPSSLPASLGDRVTINCQASQDISNYLNWYQQKPGKAPKLLIYYTNKLADGVPSRFSGSGSGRDSSFTISSLESEDIGSYYCQQYYNYPWTFGPGTKVEIKR | 4 nM | 3.75 fold |  | 
3 | hOKT3FabCSA trimer (Fab, V domains shown, Trimeric Fab-collagen-like peptide fusion from the Superdex 200 peak 2 fraction; Expressed in CHO-S cells; also called trimeric hOKT3FabCSA; trivalent hOKT3FabCSA) VH: QVQLVQSGGGVVQPGRSLRLSCKASGYTFTRYTMHWVRQAPGKGLEWIGYINPSRGYTNYNQKVKDRFTISRDNSKNTAFLQMDSLRPEDTGVYFCARYYDDHYCLDYWGQGTPVTVSS VL: DIQMTQSPSSLSASVGDRVTITCSASSSVSYMNWYQQTPGKAPKRWIYDTSKLASGVPSRFSGSGSGTDYTFTISSLQPEDIATYYCQQWSSNPFTFGQGTKLQITR |  |  | 0.02 nM | 7.5 fold
4 | low-Fc binding anti-human CD3 antibody-hOKT3IgG-AA (antibody, V domains shown, also called hOKT3IgG-AA (dimer)) VH: QVQLVQSGGGVVQPGRSLRLSCKASGYTFTRYTMHWVRQAPGKGLEWIGYINPSRGYTNYNQKVKDRFTISRDNSKNTAFLQMDSLRPEDTGVYFCARYYDDHYCLDYWGQGTPVTVSS VL: DIQMTQSPSSLSASVGDRVTITCSASSSVSYMNWYQQTPGKAPKRWIYDTSKLASGVPSRFSGSGSGTDYTFTISSLQPEDIATYYCQQWSSNPFTFGQGTKLQIT |  |  | 0.15 nM | 
